Drawing on patent US7244707, this text covers Active TGF -1 as % Control (TF1 monocytes, TGF-1 ELISA), 25 nmol/L Leu^27-IGF-II for 1 substance.

The assay concerns the target cation-independent mannose-6-phosphate (CIM6P) receptor, human (human) (UniProt P11717). Nature of the assay: cell-based or functional assay.
UniProt P11717, sequence (P11717 41-2491): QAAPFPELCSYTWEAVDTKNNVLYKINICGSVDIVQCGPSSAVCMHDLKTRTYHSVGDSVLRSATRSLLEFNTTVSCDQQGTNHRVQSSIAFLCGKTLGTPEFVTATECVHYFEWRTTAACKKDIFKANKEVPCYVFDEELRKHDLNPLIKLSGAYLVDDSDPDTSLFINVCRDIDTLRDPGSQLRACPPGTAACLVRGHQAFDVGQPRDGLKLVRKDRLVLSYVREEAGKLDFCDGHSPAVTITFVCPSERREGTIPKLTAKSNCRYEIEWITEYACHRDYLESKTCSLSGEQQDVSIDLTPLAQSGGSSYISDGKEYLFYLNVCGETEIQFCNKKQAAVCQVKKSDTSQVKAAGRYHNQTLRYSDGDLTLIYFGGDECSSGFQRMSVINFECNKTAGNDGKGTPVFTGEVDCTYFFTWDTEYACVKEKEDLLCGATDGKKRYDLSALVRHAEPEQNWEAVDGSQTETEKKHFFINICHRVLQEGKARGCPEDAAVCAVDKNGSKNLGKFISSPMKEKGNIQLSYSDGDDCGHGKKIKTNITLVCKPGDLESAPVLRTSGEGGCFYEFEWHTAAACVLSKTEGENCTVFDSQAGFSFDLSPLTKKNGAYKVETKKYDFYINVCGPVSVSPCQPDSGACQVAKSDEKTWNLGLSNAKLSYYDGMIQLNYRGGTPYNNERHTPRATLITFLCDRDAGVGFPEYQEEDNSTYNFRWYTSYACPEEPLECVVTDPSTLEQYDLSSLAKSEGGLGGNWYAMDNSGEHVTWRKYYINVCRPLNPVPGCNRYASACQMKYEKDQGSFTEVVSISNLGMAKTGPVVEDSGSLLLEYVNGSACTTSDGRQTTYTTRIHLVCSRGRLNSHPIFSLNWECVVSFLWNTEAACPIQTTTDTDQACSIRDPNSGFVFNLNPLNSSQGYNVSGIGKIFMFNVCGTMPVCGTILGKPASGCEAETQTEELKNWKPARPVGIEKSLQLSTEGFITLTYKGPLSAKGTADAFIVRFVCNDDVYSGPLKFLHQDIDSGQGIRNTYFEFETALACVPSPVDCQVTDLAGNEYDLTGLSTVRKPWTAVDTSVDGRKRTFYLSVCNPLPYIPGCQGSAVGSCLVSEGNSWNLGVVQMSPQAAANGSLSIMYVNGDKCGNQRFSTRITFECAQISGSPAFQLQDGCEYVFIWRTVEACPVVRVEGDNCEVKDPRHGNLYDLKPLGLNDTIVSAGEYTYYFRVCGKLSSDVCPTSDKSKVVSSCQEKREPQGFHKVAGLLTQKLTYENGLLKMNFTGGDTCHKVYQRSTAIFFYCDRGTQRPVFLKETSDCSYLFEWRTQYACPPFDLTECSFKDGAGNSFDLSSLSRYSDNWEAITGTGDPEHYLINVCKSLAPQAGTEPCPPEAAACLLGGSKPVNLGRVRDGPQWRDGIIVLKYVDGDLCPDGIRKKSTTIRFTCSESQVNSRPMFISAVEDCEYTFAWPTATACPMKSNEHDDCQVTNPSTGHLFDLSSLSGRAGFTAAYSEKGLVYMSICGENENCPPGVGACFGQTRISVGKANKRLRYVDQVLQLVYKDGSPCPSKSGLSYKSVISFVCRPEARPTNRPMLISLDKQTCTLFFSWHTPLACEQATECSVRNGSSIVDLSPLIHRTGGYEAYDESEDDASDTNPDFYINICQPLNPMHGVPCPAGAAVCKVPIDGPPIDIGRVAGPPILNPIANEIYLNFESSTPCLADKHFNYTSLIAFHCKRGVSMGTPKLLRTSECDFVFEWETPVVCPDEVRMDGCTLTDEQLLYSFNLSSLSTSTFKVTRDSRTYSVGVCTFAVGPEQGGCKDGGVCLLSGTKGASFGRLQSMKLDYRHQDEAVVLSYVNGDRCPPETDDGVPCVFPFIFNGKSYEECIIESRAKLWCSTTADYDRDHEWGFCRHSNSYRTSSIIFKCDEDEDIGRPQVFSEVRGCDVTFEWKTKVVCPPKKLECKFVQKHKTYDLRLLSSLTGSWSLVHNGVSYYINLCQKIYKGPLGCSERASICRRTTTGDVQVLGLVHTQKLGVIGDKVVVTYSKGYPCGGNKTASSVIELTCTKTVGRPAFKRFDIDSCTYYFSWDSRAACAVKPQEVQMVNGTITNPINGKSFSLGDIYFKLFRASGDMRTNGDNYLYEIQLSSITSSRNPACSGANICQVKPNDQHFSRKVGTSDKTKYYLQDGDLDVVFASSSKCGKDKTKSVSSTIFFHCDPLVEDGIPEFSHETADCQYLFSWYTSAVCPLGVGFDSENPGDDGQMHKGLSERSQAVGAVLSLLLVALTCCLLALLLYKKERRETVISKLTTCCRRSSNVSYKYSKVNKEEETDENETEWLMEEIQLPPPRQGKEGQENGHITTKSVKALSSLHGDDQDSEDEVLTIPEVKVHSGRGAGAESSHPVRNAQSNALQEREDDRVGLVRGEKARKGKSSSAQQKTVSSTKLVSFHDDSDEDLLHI

For “Leu^27IGF-II (receptor grade) (from UniProt P01344 25-91) (ligand)”, the Active TGF -1 as % Control (TF1 monocytes, TGF-1 ELISA), 25 nmol/L Leu^27-IGF-II was 12.7 % Control.
